For one substance, Kd, koff and kon results are on record in US20230055566A1.

For this experiment, the target named is human FGFR2b (beta)-Fc (human) (UniProt P21802). Put plainly: SPR (Biacore), hFGFR2b-Fc immobilized on CM5 chip, antibody injected at 0-200 nM.

As a reminder, the Kd is the concentration at which binding is half-saturated. A lower Kd goes with a tighter complex. As usually defined, the koff is the rate constant with which the complex falls apart. A low value points to a long-lived complex. Broadly, the kon is a measure of how fast the partners come together. The low end stands for slow association, the high end for fast association. Regarding FPA144 (antibody), the Kd worked out at 0.75 nM, the koff stood at 7.77e-05 s⁻¹ and the kon came out at 104000 M⁻¹ s⁻¹.
